The numbers were not newly measured in PMC8002405, which cites them from elsewhere.

What is called KD is the equilibrium constant for the complex coming apart.

For this series, the target named is Human neonatal Fc receptor (hFcRn) (UniProt P55899+P61769). Briefly: microscale thermophoresis (MST). The settings on record: pH 5.5. (In general: MST reads how a fluorescent partner responds to local heating, with and without ligand.)

For Human IgG1 (wild type), the KD is 0.9 µM.
